Substitutions are numbered along the chain they refer to. Names and notes keep the numbering of the source.
Experiments:
Conditions in all cases: both partners purified
Human CRM1 = molecular target: T1, Human CRM1 (human, UniProt O14980 1-1071); assay: SEC; Superdex 200 Increase 3.2/300; 180 pmol CBC and 360 pmol PHAX construct, CRM1 and RanGTP mixed with 100 μM capped 14-nt RNA (or U1 snRNA), 1 mM Mg2+, 1 mM KCl, 100 μM GTP, 30 min on ice; fractions on SDS-PAGE
T1 construct: CRM1 (XPO1), human; also called XPO1; exportin CRM1; source: E. coli Tg1, pQE60, purified (Ni2+-chelating Sepharose, heparin, Superdex 200)

[1] = molecular target: T2, Human nuclear cap-binding complex (CBC): CBP80ΔNLS with CBP20 (human, UniProt Q09161 20-790; P52298 1-156); assay: as above
T2 construct: CBP80 (NCBP1), human, CBP80ΔNLS lacking the N-terminal 19 residues; CBP20 (NCBP2), human; also called CBP80–CBP20; source: CBP80ΔNLS in High Five insect cells, CBP20 in E. coli BL21Star (DE3); pellets lysed together, purified (Ni2+-chelating Sepharose, TEV, heparin, Superdex 200)
T2 sequence 1: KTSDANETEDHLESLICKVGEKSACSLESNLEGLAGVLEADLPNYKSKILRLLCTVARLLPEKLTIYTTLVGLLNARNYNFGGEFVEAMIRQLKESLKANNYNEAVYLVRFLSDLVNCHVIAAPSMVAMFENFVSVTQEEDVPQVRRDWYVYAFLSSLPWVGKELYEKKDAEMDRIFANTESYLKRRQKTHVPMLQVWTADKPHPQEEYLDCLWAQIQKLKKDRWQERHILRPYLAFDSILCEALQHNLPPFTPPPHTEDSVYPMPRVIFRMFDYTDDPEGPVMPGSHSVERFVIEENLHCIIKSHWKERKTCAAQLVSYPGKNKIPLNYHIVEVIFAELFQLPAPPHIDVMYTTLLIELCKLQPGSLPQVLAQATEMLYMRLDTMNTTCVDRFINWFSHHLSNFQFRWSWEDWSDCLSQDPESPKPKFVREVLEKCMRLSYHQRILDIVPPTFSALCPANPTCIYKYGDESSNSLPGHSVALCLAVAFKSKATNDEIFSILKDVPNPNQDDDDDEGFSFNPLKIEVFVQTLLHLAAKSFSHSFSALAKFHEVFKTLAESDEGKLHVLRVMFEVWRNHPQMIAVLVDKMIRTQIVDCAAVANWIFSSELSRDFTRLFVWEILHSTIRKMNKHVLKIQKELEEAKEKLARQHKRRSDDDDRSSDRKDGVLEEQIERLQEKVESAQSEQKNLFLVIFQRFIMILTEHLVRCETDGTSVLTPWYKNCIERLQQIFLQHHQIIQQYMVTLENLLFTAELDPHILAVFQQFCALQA
T2 sequence 2: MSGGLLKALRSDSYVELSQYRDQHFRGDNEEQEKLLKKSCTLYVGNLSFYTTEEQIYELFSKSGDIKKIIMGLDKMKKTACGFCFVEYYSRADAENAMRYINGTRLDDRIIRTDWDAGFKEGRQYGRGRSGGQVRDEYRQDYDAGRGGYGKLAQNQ

[2] = molecular target: Human Ran Q69L bound to GTP (human, UniProt P62826 1-216, Q69L); assay: as above
[3] = molecular target: T2, Human nuclear cap-binding complex …; assay: ITC; 25 °C, PEAQ-ITC; 0.2–0.25 mM PHAX 103–196 or mutant injected into 20 µM CBC in the presence or absence of 0.1 mM m7GTP or m7GpppG; 20 mM Tris pH 8.0, 100 mM NaCl, 2% glycerol; one-site model
[4] = molecular target: T3, Human full-length PHAX, phosphorylated in vitro by CK2 (human, UniProt Q9H814 1-394, phosphorylated by CK2 in vitro: between 3 and 5 phosphorylated sites, up to four within ST2 (residues 64–76); the positions are not given); assay: cryo-EM structure; snRNA export complex of CBC, CK2-phosphorylated PHAX, CRM1, Ran(Q69L)GTP and 14-nt capped RNA, purified on Superdex 200 Increase; Titan Krios 300 kV
T3 construct: PHAX (Phosphorylated Adaptor for RNA Export), human, 394 amino acid residues; also called P-PHAX; phosphorylated PHAX; source: E. coli BL21Star (DE3), pETM11, purified (Ni2+-chelating Sepharose, heparin, Superdex 200); then treated with CK2 and ATP

[5] = molecular target: T4, CBP80ΔNLS (subunit of the human CBC) (human, UniProt Q09161 20-790); assay: as above
T4 construct: CBP80 (NCBP1), human, lacking the N-terminal 19 residues; Stood in the assay as part of CBC; made a molecule of its own for the contacts seen in the structure; also called NCBP1; source: High Five insect cells; purified together with CBP20 as CBC
T4 sequence (looked up): T2 sequence 1

T1 sequence (O14980 whole entry): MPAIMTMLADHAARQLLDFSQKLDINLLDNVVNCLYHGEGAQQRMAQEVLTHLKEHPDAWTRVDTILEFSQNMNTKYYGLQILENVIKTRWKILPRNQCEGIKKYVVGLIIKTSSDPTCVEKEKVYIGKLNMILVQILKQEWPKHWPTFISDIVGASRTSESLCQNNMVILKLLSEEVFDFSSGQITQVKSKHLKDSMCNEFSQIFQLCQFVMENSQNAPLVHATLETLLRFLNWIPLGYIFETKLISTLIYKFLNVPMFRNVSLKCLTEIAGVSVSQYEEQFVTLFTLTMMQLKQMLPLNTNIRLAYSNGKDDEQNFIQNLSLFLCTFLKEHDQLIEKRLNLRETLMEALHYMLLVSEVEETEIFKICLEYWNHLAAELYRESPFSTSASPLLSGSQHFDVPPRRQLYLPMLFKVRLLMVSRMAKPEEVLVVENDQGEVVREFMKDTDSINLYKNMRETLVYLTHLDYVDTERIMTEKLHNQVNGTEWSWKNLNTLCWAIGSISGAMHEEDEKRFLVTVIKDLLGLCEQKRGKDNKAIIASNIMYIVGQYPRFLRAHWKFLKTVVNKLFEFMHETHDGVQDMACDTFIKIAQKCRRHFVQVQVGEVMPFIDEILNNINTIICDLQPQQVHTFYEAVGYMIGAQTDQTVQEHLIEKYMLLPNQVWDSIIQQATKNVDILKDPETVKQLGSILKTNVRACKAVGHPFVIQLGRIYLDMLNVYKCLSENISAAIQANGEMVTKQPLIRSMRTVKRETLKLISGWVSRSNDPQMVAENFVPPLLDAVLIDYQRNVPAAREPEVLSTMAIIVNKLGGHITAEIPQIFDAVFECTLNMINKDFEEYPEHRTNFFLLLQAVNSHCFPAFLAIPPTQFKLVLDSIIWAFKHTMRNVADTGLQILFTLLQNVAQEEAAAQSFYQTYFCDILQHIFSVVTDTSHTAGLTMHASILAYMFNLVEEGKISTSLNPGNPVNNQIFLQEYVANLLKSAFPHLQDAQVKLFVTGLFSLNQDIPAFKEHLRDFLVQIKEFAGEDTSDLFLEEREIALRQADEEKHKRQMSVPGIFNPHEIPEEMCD
T3 sequence (Q9H814 whole entry, the tested form may be a part): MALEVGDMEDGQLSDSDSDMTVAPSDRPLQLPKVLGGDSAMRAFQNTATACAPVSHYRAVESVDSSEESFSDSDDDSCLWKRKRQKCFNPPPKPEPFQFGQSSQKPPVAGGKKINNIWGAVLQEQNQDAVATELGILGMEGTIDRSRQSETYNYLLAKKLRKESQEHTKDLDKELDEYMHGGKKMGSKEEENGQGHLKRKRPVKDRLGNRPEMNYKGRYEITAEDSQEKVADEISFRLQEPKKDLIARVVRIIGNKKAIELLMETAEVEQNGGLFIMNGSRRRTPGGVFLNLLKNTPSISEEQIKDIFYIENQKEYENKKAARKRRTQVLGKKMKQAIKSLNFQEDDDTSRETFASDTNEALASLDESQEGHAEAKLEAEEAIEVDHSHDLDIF

B1: MBP-PHAX103–196 (wild type) (domain or fragment, human, UniProt Q9H814 103-196, looked up)
chain: SQKPPVAGGKKINNIWGAVLQEQNQDAVATELGILGMEGTIDRSRQSETYNYLLAKKLRKESQEHTKDLDKELDEYMHGGKKMGSKEEENGQGH
notes: source: E. coli BL21Star (DE3), pETM41, purified (Ni2+-chelating Sepharose, Superdex 200); not shown: MBP, N-terminal, kept
- binding result (Human CRM1): binds
- binding result [1]: binds
- binding result [2]: binds

B2: MBP-PHAX103–196 Y154A (domain or fragment, human, UniProt Q9H814 103-196, looked up)
chain: B1 chain with Y52A
notes: as for B1
- binding result [1]: binds

B3: MBP-PHAX103–196 R147E, Y152E, Y154E (domain or fragment, human, UniProt Q9H814 103-196, looked up)
chain: B1 chain with R45E, Y50E, Y52E
notes: as for B1
- binding result [3]: binds

B4: CBP20 (subunit of the human CBC) (natural protein)
chain: T2 sequence 2
notes: CBP20 (NCBP2), human; Stood in the assay as part of CBC; made a molecule of its own for the contacts seen in the structure; also called NCBP2; source: E. coli BL21Star (DE3), pETM30; purified together with CBP80ΔNLS as CBC
- binding result [4]: binds
- binding result [5]: binds

Reference: PMC12350170, “Structural basis for the synergistic assembly of the snRNA export complex” (Nature Structural & Molecular Biology, 2025)
